Results taken from paper PMC9894260 (Proceedings of the National Academy of Sciences of the …, 2022).

T1: ARPC1 (subunit of fission yeast Arp2/3 complex) (S. pombe, UniProt P78774)
T1 sequence: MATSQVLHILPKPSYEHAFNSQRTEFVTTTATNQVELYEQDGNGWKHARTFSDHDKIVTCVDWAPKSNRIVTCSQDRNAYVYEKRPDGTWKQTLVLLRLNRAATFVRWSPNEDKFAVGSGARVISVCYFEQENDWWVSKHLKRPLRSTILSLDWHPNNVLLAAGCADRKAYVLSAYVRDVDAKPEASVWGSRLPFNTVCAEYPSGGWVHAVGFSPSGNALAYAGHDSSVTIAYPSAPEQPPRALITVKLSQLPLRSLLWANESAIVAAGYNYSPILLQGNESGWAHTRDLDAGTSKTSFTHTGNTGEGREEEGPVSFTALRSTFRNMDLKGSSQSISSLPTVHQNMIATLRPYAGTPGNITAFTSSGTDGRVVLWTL

B1: ARPC2 (subunit of fission yeast Arp2/3 complex) (natural protein)
chain: MLSLDYNNIFIYELLTERFSSENPSSIDQVVTDFDGVTFHISTPEEKTKILISLSMKCYPELVNYGTLDLLKQIYGAYVHEPEMGYNFSILIDLQQLPATDEEKEQLAMSISMLKRNVLAAPFHRAFTKQAELADLARKDPENAPMLDKQATSQELMAIHYRDEETIVLWPEHDRVTVVFSTKFREETDRIFGKVFLQEFVDARRRPAIQTAPQVLFSYRDPPLEIRDIQGIQKGDDFGFVTFVLFERHFTPQNREDCISHIQVFRNTLHFHIKASKAYMHQRMRKRVADFQKVLNRAKPDVELERKTATGRSFVRA
B2: ARPC4 (subunit of fission yeast Arp2/3 complex) (natural protein)
chain: not shown
B3: ARPC3 (subunit of fission yeast Arp2/3 complex) (natural protein)
chain: MPAYHSSFLSLTDVPTTGNIAMLPLKTKFRGPAYPADESQMDIIDECIGLFRANCFFRNFEIKGPADRTLIYGTLFISECLGRVNGLNYRDAERQLNSLALENFSIPGSAGFPLNALYAPPLSPQDAEIMRTYLTQFRQELAYRLLSHVYATEKDHPSKWWTCFSKRRFMNKAL

How the values were obtained:
Experiment in all cases: cryo-EM structure
[1] = target: Arp2 (subunit of fission yeast Arp2/3 complex) (S. pombe, UniProt Q9UUJ1)
[2] = target: T1, ARPC1 (subunit of fission yeast Arp2/3 …)
[3] = target: B1

Arp2 (subunit of fission yeast Arp2/3 complex), sequence (Q9UUJ1 whole entry, one chain of several): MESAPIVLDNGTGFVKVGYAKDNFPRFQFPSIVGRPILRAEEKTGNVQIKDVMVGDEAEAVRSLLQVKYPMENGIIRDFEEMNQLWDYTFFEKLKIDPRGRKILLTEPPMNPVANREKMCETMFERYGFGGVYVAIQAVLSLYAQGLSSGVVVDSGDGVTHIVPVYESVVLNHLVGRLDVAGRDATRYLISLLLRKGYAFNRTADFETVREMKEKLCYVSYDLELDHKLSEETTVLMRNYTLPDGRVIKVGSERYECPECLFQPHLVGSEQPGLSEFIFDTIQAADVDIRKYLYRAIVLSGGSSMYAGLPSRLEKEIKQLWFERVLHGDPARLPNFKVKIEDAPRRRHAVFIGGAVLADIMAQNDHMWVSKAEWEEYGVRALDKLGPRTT

Binder	binding result [1]	binding result [2]	binding result [3]
B1	binds	binds	
B2		binds	binds
B3	binds		
